± gives the standard deviation of the averaged measurements.
Test: total protein half-life in vivo (active degradation + dilution); higher = more stable protein
[1] = E. coli NCM3722 delta-clpP delta-lon delta-hslV, growth: N-lim chemostat, doubling time 6 h
[2] = E. coli NCM3722 delta-hslV, growth: N-lim chemostat, doubling time 6 h
[3] = E. coli NCM3722 delta-lon, growth: N-lim chemostat, doubling time 6 h
[4] = E. coli NCM3722 delta-smpB, growth: N-lim chemostat, doubling time 6 h
[5] = wild type E. coli NCM3722, growth: C-lim chemostat, doubling time 3 h
[6] = wild type E. coli NCM3722, growth: C-lim chemostat, doubling time 6 h
[7] = wild type E. coli NCM3722, growth: C-lim chemostat, doubling time 12 h
[8] = wild type E. coli NCM3722, growth: N-lim chemostat, doubling time 6 h
[9] = wild type E. coli NCM3722, growth: N-lim chemostat, doubling time 12 h
[10] = wild type E. coli NCM3722, growth: P-lim chemostat, doubling time 6 h
[11] = wild type E. coli NCM3722, growth: P-lim chemostat, doubling time 12 h
[12] = E. coli NCM3722 delta-clpP, growth: N-lim chemostat, doubling time 6 h

Row | Sequence | total protein half-life in vivo [1] [h] | total protein half-life in vivo [2] [h] | total protein half-life in vivo [3] [h] | total protein half-life in vivo [4] [h] | total protein half-life in vivo [5] [h] | total protein half-life in vivo [6] [h] | total protein half-life in vivo [7] [h] | total protein half-life in vivo [8] [h] | total protein half-life in vivo [9] [h] | total protein half-life in vivo [10] [h] | total protein half-life in vivo [11] [h] | total protein half-life in vivo [12] [h]
1 | MKTLLIIDANLGQARAYMAKTLLGAAARKAKLEIIDNPNDAEMAIVLGDSIPNDSALNGKNVWLGDISRAVAHPELFLSEAKGHAKPYTAPVAATAPVAASGPKRVVAVTACPTGVAHTFMAAEAIETEAKKRGWWVKVETRGSVGAGNAITPEEVAAADLVIVAADIEVDLAKFAGKPMYRTSTGLALKKTAQELDKAVAEATPYEPAGKAQTATTESKKESAGAYRHLLTGVSYMLPMVVAGGLCIALSFAFGIEAFKEPGTLAAALMQIGGGSAFALMVPVLAGYIAFSIADRPGLTPGLIGGMLAVSTGSGFIGGIIAGFLAGYIAKLISTQLKLPQSMEALKPILIIPLISSLVVGLAMIYLIGKPVAGILEGLTHWLQTMGTANAVLLGAILGGMMCTDMGGPVNKAAYAFGVGLLSTQTYGPMAAIMAAGMVPPLAMGLATMVARRKFDKAQQEGGKAALVLGLCFISEGAIPFAARDPMRVLPCCIVGGALTGAISMAIGAKLMAPHGGLFVLLIPGAITPVLGYLVAIIAGTLVAGLAYAFLKRPEVDAVAKAA | 6.73 ± 0.62 | 5.956 ± 0.014 | 5.76 ± 0.27 | 5.89 ± 0.43 | 3.54 ± 0.33 | 6.11 ± 0.28 | 13.4 ± 0.7 | 5.89 ± 0.44 | 11.6 ± 0.25 | 6.29 ± 0.29 | 11.9 ± 0.6 | 
2 | MKTLNRRDFPGAQYPERIIQFGEGNFLRAFVDWQIDLLNEHTDLNSGVVVVRPIETSFPPSLSTQDGLYTTIIRGLNEKGEAVSDARLIRSVNREISVYSEYDEFLKLAHNPEMRFVFSNTTEAGISYHAGDKFDDAPAVSYPAKLTRLLFERFSHFNGALDKGWIIIPCELIDYNGDALRELVLRYAQEWALPEAFIQWLDQANSFCSTLVDRIVTGYPRDEVAKLEEELGYHDGFLDTAEHFYLFVIQGPKSLATELRLDKYPLNVLIVDDIKPYKERKVAILNGAHTALVPVAFQAGLDTVGEAMNDAEICAFVEKAIYEEIIPVLDLPRDELESFASAVTGRFRNPYIKHQLLSIALNGMTKFRTRILPQLLAGQKANGTLPARLTFALAALIAFYRGERNGETYPVQDDAHWLERYQQLWSQHRDRVIGTQELVAIVLAEKDHWEQDLTQVPGLVEQVANDLDAILEKGMREAVRPLC [P0A6L7] |  |  |  |  | 3.15 ± 0.18 | 4.58 ± 0.071 | 8.15 ± 1.3 |  |  | 5.26 ± 0.51 |  | 
3 | MKTLSPAVITLLWRQDAAEFYFSRLSHLPWAMLLHSGYADHPYSRFDIVVAEPICTLTTFGKETVVSESEKRTTTTDDPLQVLQQVLDRADIRPTHNEDLPFQGGALGLFGYDLGRRFESLPEIAEQDIVLPDMAVGIYDWALIVDHQRHTVSLLSHNDVNARRAWLESQQFSPQEDFTLTSDWQSNMTREQYGEKFRQVQEYLHSGDCYQVNLAQRFHATYSGDEWQAFLQLNQANRAPFSAFLRLEQGAILSLSPERFILCDNSEIQTRPIKGTLPRLPDPQEDSKQAVKLANSAKDRAENLMIVDLMRNDIGRVAVAGSVKVPELFVVEPFPAVHHLVSTITAQLPEQLHASDLLRAAFPGGSITGAPKVRAMEIIDELEPQRRNAWCGSIGYLSFCGNMDTSITIRTLTAINGQIFCSAGGGIVADSQEEAEYQETFDKVNRILKQLEK | 5 ± 0.22 | 4.358 ± 0.037 | 4.5 ± 0.1 | 4.47 ± 0.21 | 3.57 ± 0.57 | 5.38 ± 0.12 | 11 ± 0.69 | 4.31 ± 0.16 | 7.82 ± 0.28 | 6.33 ± 0.27 | 12.2 ± 1.5 | 4.56 ± 0.35
4 | MKTMLAAYLPGNSTVDLREVAVPTPGINQVLIKMKSSGICGSDVHYIYHQHRATAAAPDKPLYQGFINGHEPCGQIVAMGQGCRHFKEGDRVLVYHISGCGFCPNCRRGFPISCTGEGKAAYGWQRDGGHAEYLLAEEKDLILLPDALSYEDGAFISCGVGTAYEGILRGEVSGSDNVLVVGLGPVGMMAMMLAKGRGAKRIIGVDMLPERLAMAKQLGVMDHGYLATTEGLPQIIAELTHGGADVALDCSGNAAGRLLALQSTADWGRVVYIGETGKVEFEVSADLMHHQRRIIGSWVTSLFHMEKCAHDLTDWKLWPRNAITHRFSLEQAGDAYALMASGKCGKVVINFPD | 4.41 ± 0.15 | 2.466 ± 0.011 | 2.619 ± 0.012 | 1.84 ± 1.1 |  | 2.74 | 5.33 ± 3.6 | 2.17 ± 0.04 | 3.6 ± 0.11 | 4.27 ± 0.51 | 8.54 ± 2.2 | 2.87
5 | MKTPLVTREGYEKLKQELNYLWREERPEVTKKVTWAASLGDRSENADYQYNKKRLREIDRRVRYLTKCLENLKIVDYSPQQEGKVFFGAWVEIENDDGVTHRFRIVGYDEIFGRKDYISIDSPMARALLKKEVGDLAVVNTPAGEASWYVNAIEYVKP | 4.94 ± 0.26 | 3.36 ± 0.21 | 4.34 ± 0.27 | 3.07 ± 0.3 | 2.83 ± 0.18 | 4.63 ± 0.26 | 7.33 ± 1.7 | 3.48 ± 0.33 | 5.226 ± 0.025 | 4.65 ± 0.57 | 8.01 ± 0.72 | 3.85 ± 0.086
6 | MKTRTQQIEELQKEWTQPRWEGITRPYSAEDVVKLRGSVNPECTLAQLGAAKMWRLLHGESKKGYINSLGALTGGQALQQAKAGIEAVYLSGWQVAADANLAASMYPDQSLYPANSVPAVVERINNTFRRADQIQWSAGIEPGDPRYVDYFLPIVADAEAGFGGVLNAFELMKAMIEAGAAAVHFEDQLASVKKCGHMGGKVLVPTQEAIQKLVAARLAADVTGVPTLLVARTDADAADLITSDCDPYDSEFITGERTSEGFFRTHAGIEQAISRGLAYAPYADLVWCETSTPDLELARRFAQAIHAKYPGKLLAYNCSPSFNWQKNLDDKTIASFQQQLSDMGYKFQFITLAGIHSMWFNMFDLANAYAQGEGMKHYVEKVQQPEFAAAKDGYTFVSHQQEVGTGYFDKVTTIIQGGTSSVTALTGSTEESQF [P0A9G6] | 3.78 ± 0.38 | 2.33 ± 0.14 | 2.71 ± 0.22 | 2.51 ± 0.07 | 3.19 ± 0.085 | 4.78 ± 0.25 | 7.76 ± 0.96 | 3.01 ± 0.6 | 3.15 ± 0.29 | 5.05 ± 0.28 | 11.2 ± 3.2 | 3.26 ± 0.34
7 | MKTSVRIGAFEIDDGELHGESPGDRTLTIPCKSDPDLCMQLDAWDAETSIPALLNGEHSVLYRTRYDQQSDAWIMRLA | 2.16 ± 0.13 | 0.651 | 1.83 ± 1.1 | 0.479 ± 0.045 | 1.04 ± 0.18 | 1.846 ± 0.018 | 2.06 | 0.85 | 0.89 | 0.882 ± 0.16 | 1.16 | 1.58

Source: the supplement of paper PMC11246515
